{
  "source": "the RNAGym collection of RNA variant scans (doi:10.1021/acssynbio.7b00057)",
  "parents": {"B1": {"name": "Pistol ribozyme (parent)", "chain": "GGGUCGUUGUUCCAUAAUCGCGUGGAUAUGGCACGCAAGUUUCUACCGGGCACCGUAAAUGUCCGACUGGAGCCGUUCGGGCGGCUAUAAACAGACCUCAGGCCCGAAGCGUGGCGGCACCUGCCGCCGGUGGUAAAAAAGAUCGGAAGAGCACACGUCU"}},
  "data": [
    {"variants_of": "B1", "test": "aptazyme ON/OFF ratio, guanine; higher = stronger switching; co-transcriptional cleavage with and without guanine", "values": [
      {"variant": "U7G U8G G9C U10C U11C C12A", "aptazyme ON/OFF ratio": 1.09},
      {"variant": "U7G U8G G9C U10C U11C C12U", "aptazyme ON/OFF ratio": 1.18},
      {"variant": "U7G U8G G9C U10C U11C C12G", "aptazyme ON/OFF ratio": 1.05},
      {"variant": "U7G U8G G9C U10A C13G", "aptazyme ON/OFF ratio": 1.01},
      {"variant": "U7G U8G G9C U10A C13U", "aptazyme ON/OFF ratio": 1.03},
      {"variant": "U7G U8G G9C U10A C13A", "aptazyme ON/OFF ratio": 1.05},
      {"variant": "U7G U8G G9A U10C U11G C12G C13G", "aptazyme ON/OFF ratio": 1.14},
      {"variant": "U7G U8G G9A U10C U11G C12G C13U", "aptazyme ON/OFF ratio": 1.08},
      {"variant": "U7G U8G G9A U10C U11G C12G C13A", "aptazyme ON/OFF ratio": 1.1},
      {"variant": "U7G U8G G9A U10G U11C C12A", "aptazyme ON/OFF ratio": 1.4},
      {"variant": "U7G U8G G9A U10G U11C C12U", "aptazyme ON/OFF ratio": 1.27},
      {"variant": "U7G U8G G9A U10G U11C C12G", "aptazyme ON/OFF ratio": 1.26},
      {"variant": "U7G U8G G9C U10C C13G", "aptazyme ON/OFF ratio": 1.15},
      {"variant": "U7G U8G G9C U10C C13A", "aptazyme ON/OFF ratio": 1.44},
      {"variant": "U7G U8G G9C U10C C13U", "aptazyme ON/OFF ratio": 1.59},
      {"variant": "U7G U8G G9C U10A U11G C13A", "aptazyme ON/OFF ratio": 1.08},
      {"variant": "U7G U8G G9C U10A U11G C13G", "aptazyme ON/OFF ratio": 1.03},
      {"variant": "U7G U8G G9C U10A U11G C13U", "aptazyme ON/OFF ratio": 1.04},
      {"variant": "U7G U8G G9A U10C U11G C12G", "aptazyme ON/OFF ratio": 1.53},
      {"variant": "U7G U8G G9A U10C U11G C12A", "aptazyme ON/OFF ratio": 1.15},
      {"variant": "U7G U8G G9A U10C U11G C12U", "aptazyme ON/OFF ratio": 1.34},
      {"variant": "U7G U8G G9A U10C U11C", "aptazyme ON/OFF ratio": 1.08},
      {"variant": "U7G U8G G9A U10C U11A", "aptazyme ON/OFF ratio": 2.49},
      {"variant": "U7G U8G G9A U10C U11G", "aptazyme ON/OFF ratio": 1.89},
      {"variant": "U7G U8G G9A U10C U11A C13A", "aptazyme ON/OFF ratio": 1.2},
      {"variant": "U7G U8G G9A U10C U11A C13U", "aptazyme ON/OFF ratio": 1.2},
      {"variant": "U7G U8G G9A U10C U11A C13G", "aptazyme ON/OFF ratio": 1.1},
      {"variant": "U7G U8G G9C U10C U11G C12A C13G", "aptazyme ON/OFF ratio": 1.31},
      {"variant": "U7G U8G G9C U10C U11G C12A C13U", "aptazyme ON/OFF ratio": 1.3},
      {"variant": "U7G U8G G9C U10C U11G C12A C13A", "aptazyme ON/OFF ratio": 1.17},
      {"variant": "U7G U8G G9C C13G", "aptazyme ON/OFF ratio": 1.16},
      {"variant": "U7G U8G G9C C13A", "aptazyme ON/OFF ratio": 1.42},
      {"variant": "U7G U8G G9C C13U", "aptazyme ON/OFF ratio": 1.47},
      {"variant": "U7G U8G G9A U10C U11A C12G C13G", "aptazyme ON/OFF ratio": 1.18},
      {"variant": "U7G U8G G9A U10C U11A C12G C13A", "aptazyme ON/OFF ratio": 1.04},
      {"variant": "U7G U8G G9A U10C U11A C12G C13U", "aptazyme ON/OFF ratio": 1.17},
      {"variant": "U7G U8G G9A U10C U11A C12U", "aptazyme ON/OFF ratio": 1.18},
      {"variant": "U7G U8G G9A U10C U11A C12A", "aptazyme ON/OFF ratio": 1.34},
      {"variant": "U7G U8G G9A U10C U11A C12G", "aptazyme ON/OFF ratio": 1.21},
      {"variant": "U7G U8G G9C C12G C13U", "aptazyme ON/OFF ratio": 1.35},
      {"variant": "U7G U8G G9C C12G C13G", "aptazyme ON/OFF ratio": 1.13},
      {"variant": "U7G U8G G9C C12G C13A", "aptazyme ON/OFF ratio": 1.28},
      {"variant": "U7G U8G G9A U11A", "aptazyme ON/OFF ratio": 2.46},
      {"variant": "U7G U8G G9A U11G", "aptazyme ON/OFF ratio": 1.91},
      {"variant": "U7G U8G G9A U11C", "aptazyme ON/OFF ratio": 1.54},
      {"variant": "U7G U8G G9C U10C U11A C12A C13A", "aptazyme ON/OFF ratio": 1.33},
      {"variant": "U7G U8G G9C U10C U11A C12A C13G", "aptazyme ON/OFF ratio": 1.23},
      {"variant": "U7G U8G G9C U10C U11A C12A C13U", "aptazyme ON/OFF ratio": 1.12},
      {"variant": "U7G U8G G9C U10C C12A C13U", "aptazyme ON/OFF ratio": 1.25},
      {"variant": "U7G U8G G9C U10C C12A C13A", "aptazyme ON/OFF ratio": 1.29},
      {"variant": "U7G U8G G9C U10C C12A C13G", "aptazyme ON/OFF ratio": 1.27},
      {"variant": "U7G U8G G9A U11A C12U C13A", "aptazyme ON/OFF ratio": 1.15},
      {"variant": "U7G U8G G9A U11A C12U C13G", "aptazyme ON/OFF ratio": 1.12},
      {"variant": "U7G U8G G9A U11A C12U C13U", "aptazyme ON/OFF ratio": 1.22},
      {"variant": "U7G U8G G9A U10C U11C C12G C13G", "aptazyme ON/OFF ratio": 1.03},
      {"variant": "U7G U8G G9A U10C U11C C12G C13A", "aptazyme ON/OFF ratio": 1.16},
      {"variant": "U7G U8G G9A U10C U11C C12G C13U", "aptazyme ON/OFF ratio": 1.12},
      {"variant": "U7G U8G G9C U10A U11G C12U C13G", "aptazyme ON/OFF ratio": 1.04},
      {"variant": "U7G U8G G9C U10A U11G C12U C13U", "aptazyme ON/OFF ratio": 1.05},
      {"variant": "U7G U8G G9C U10A U11G C12U C13A", "aptazyme ON/OFF ratio": 1.07},
      {"variant": "U7G U8G G9A U10G U11A C12A C13G", "aptazyme ON/OFF ratio": 1.04},
      {"variant": "U7G U8G G9A U10G U11A C12A C13A", "aptazyme ON/OFF ratio": 1.12},
      {"variant": "U7G U8G G9A U10G U11A C12A C13U", "aptazyme ON/OFF ratio": 1.18},
      {"variant": "U7G U8G G9A U10G U11C C12U C13G", "aptazyme ON/OFF ratio": 1.27},
      {"variant": "U7G U8G G9A U10G U11C C12U C13A", "aptazyme ON/OFF ratio": 1.07},
      {"variant": "U7G U8G G9A U10G U11C C12U C13U", "aptazyme ON/OFF ratio": 1.29},
      {"variant": "U7G U8G G9A U11A C12A", "aptazyme ON/OFF ratio": 1.38},
      {"variant": "U7G U8G G9A U11A C12U", "aptazyme ON/OFF ratio": 1.44},
      {"variant": "U7G U8G G9A U11A C12G", "aptazyme ON/OFF ratio": 1.12},
      {"variant": "U7G U8G G9A U10A U11G C12G C13U", "aptazyme ON/OFF ratio": 1.06},
      {"variant": "U7G U8G G9A U10A U11G C12G C13G", "aptazyme ON/OFF ratio": 1.15},
      {"variant": "U7G U8G G9A U10A U11G C12G C13A", "aptazyme ON/OFF ratio": 1.14},
      {"variant": "U7G U8G G9A U10G U11A C12U", "aptazyme ON/OFF ratio": 1.13},
      {"variant": "U7G U8G G9A U10G U11A C12G", "aptazyme ON/OFF ratio": 1.15},
      {"variant": "U7G U8G G9A U10G U11A C12A", "aptazyme ON/OFF ratio": 1.07},
      {"variant": "U7G U8G G9C U10A U11C C12G C13G", "aptazyme ON/OFF ratio": 1.05},
      {"variant": "U7G U8G G9C U10A U11C C12G C13A", "aptazyme ON/OFF ratio": 1.06},
      {"variant": "U7G U8G G9C U10A U11C C12G C13U", "aptazyme ON/OFF ratio": 1.06},
      {"variant": "U7G U8G G9A U10C U11A C12U C13A", "aptazyme ON/OFF ratio": 1.06},
      {"variant": "U7G U8G G9A U10C U11A C12U C13U", "aptazyme ON/OFF ratio": 1.08},
      {"variant": "U7G U8G G9A U10C U11A C12U C13G", "aptazyme ON/OFF ratio": 1.08},
      {"variant": "U7G U8G G9A U10G C12A C13U", "aptazyme ON/OFF ratio": 1.32},
      {"variant": "U7G U8G G9A U10G C12A C13A", "aptazyme ON/OFF ratio": 1.1}
    ]}
  ]
}
